Experiments:
[1] = target: T1, hZFY full-length (13-finger construct) (human, UniProt P08048 408-768); assay: fluorescence anisotropy dissociation
T1 sequence: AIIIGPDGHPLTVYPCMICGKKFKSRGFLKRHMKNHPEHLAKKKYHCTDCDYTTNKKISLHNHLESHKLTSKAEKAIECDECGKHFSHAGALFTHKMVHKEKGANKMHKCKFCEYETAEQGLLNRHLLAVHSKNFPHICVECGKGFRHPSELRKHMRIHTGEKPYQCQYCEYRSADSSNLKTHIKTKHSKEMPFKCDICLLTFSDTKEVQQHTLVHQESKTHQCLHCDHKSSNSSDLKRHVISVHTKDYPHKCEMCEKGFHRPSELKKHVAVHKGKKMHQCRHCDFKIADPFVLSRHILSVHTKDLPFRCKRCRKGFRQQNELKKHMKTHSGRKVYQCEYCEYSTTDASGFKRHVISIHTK

[2] = target: T1, hZFY full-length (13-finger construct); assay: fluorescence anisotropy dissociation; remark: listed apart in the source

Binder | binding signal [1] | binding result [2]
S.S.N. FAM probe (dsDNA) DNA 1: ACCTGGCCTAGTCGTTGCCCAGAT DNA 2: ATCTGGGCAACGACTAGGCCAGGT | ~2 fold shorter lifetime than SSS | –
S.S.S. (long) FAM probe (dsDNA) DNA 1: ACCTGGCCTAGTCGTTTTTGAGATCTTCATCAATTGCCGCATC DNA 2: GATGCGGCAATTGATGAAGATCTCAAAAACGACTAGGCCAGGT | – | binds

Reference: doi:10.1101/637298
